Test system: MS2 coat protein
Test: apparent KD of MS2 coat protein; designed switch direction (-1 OFF switch, 1 ON switch): -1; higher = weaker reporter binding
Method in brief: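 The buffer was Tris-HCl pH 7.5 with KCl, MgCl2, BSA, DTT, tRNA and Tween-20. In it, SNAP-549-labelled MS2 coat protein was titrated in doubling steps from 0.7 or 1.5 nM to 3 µM over chip-bound RNA switches transcribed by stalled E. coli RNA polymerase on Illumina chips. Apparent KD is the per-design median over clusters of curve fits to normalised fluorescence.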

[1] = Eterna round: R95, input ligand: FMN 200 uM
[2] = Eterna round: R95, input ligand: microRNA oligo, concentration not stated
[3] = Eterna round: R95, input ligand: none
[4] = input ligand: microRNA oligo, concentration not stated

| Sequence | apparent KD of MS2 coat protein (input ligand: FMN 200 uM) [nM] | apparent KD of MS2 coat protein (input ligand: none) [nM] | apparent KD of MS2 coat protein [1] [nM] | apparent KD of MS2 coat protein [2] [nM] | apparent KD of MS2 coat protein [3] [nM] | apparent KD of MS2 coat protein [4] [nM] |
| --- | --- | --- | --- | --- | --- | --- |
| AUCUCUCGUGUUAGGAUAUCCAGUUAGUUCGUGCGGGAGAAGGAACAUGAGGAUCACCCAUGUAAACAAAUCGC [BmEX4 B.21] (Eterna round: R97, puzzle: Brourd's mod of Exclusion 4) | 52.1 | 18.5 | – | – | – | – |
| AUGAAGUAAGGAUAUUAUCGCGGGCAGAGGCCCAGCUCAUAUGAGAAGGUACAUGAGGAUCACCCAUGUCCUCU [Eternabot (L2) Solution 72] (Eterna round: R97, puzzle: Exclusion 4) | 25.9 | 30 | – | – | – | – |
| AUGAGCAGACGGAGAUCCAACAUGAGGAUCACCCAUGUCUCAAAAGCUUUUUGCUCAUCUUAUUGUACCUUGGUGCU [Mat - Sensor v3 - turn-off var 1 - JL Mod - D16] (puzzle: Sensor v3, turn-off variant 1) | – | – | 167 | 13.2 | 194 | – |
| AUGAGGUGAGGAUAUACGAGAUGAUAUUGCAGAGCAAGUCAGUAGAAGGCACAUGAGGAUCACCCAUGUUCGGG [Eternabot (L2) Solution 93] (Eterna round: R97, puzzle: Exclusion 4) | 269 | 397 | – | – | – | – |
| AUGCGACAUGAGGAUCACCCAUGUGAGGAUAUGCGAAUGCAUACUUCGGUGUGAUAGAGCAGAAGGCGCAGGUA [EX1 #16] (Eterna round: R97, puzzle: Exclusion 1) | 560 | 831 | – | – | – | – |
| AUGCGACAUGAGGAUCACCCAUGUGAGGAUAUGCGAAUGCAUACUUCGGUGUGAUAGAGUAGAAGGCGCAGGUA [EX1 #17] (Eterna round: R97, puzzle: Exclusion 1) | 472 | 761 | – | – | – | – |
| AUGCGUGGCUAGGAUAUCGAGGAAUUUAGCCAGCGAGAAGGAGCCACAUGAGGAUCACCCAUGUGGUGAACCUC [jl-ex6-4.62 ViennaUCT mod] (Eterna round: R97, puzzle: Exclusion 6) | 41.1 | 10.2 | – | – | – | – |
| AUGCGUGGCUAGGAUAUCGAGGAAUUUAGCCAGCGAGAAGGAGCCACAUGAGGAUCACCCAUGUGGUGAACCUU [jl-ex6-4.64 ViennaUCT mod] (Eterna round: R97, puzzle: Exclusion 6) | 14.5 | 15.8 | – | – | – | – |
| AUGCGUGGCUAGGAUAUUGAGGAAUUUAGCCAGCAAGAAGGAGCCACAUGAGGAUCACCCAUGUGGUGAACCUC [jl-ex6-4.61 ViennaUCT mod] (Eterna round: R97, puzzle: Exclusion 6) | 13.2 | 30.6 | – | – | – | – |
| AUGCUCCGUGUAGGAUAUCGCCGCACCACCCGGCGAGAAGGACAUGAGGAUCACCCAUGUAUGUUAUUAUCACGUGUGGCGCGC [Design 42] (Eterna round: R96, puzzle: Exclusion NG 1) | 17.2 | 13.6 | – | – | – | 12.3 |
| AUGCUCCGUGUAGGAUAUCGCCGCAUCACUCGGCGAGAAGGACAUGAGGAUCACCCAUGUAUGUUAUUAUCACGUGUGGCGCGC [Design 44] (Eterna round: R96, puzzle: Exclusion NG 1) | 52.3 | 25.3 | – | – | – | 16.7 |
| AUGGAGGUAGUCAGGAUAUCGGGCGCUCGGGCGUACGAGAAGGGACAUGAGGAUCACCCAUGUCGCUCAUUCCA [BmEX4 C.2] (Eterna round: R97, puzzle: Brourd's mod of Exclusion 4) | 24.6 | 23.4 | – | – | – | – |
| AUGUACCGAAGAAGUUGUAACAUGAGGAUCACCCAUGUCGAAGUGAGGACAGGGAAGAGAAGCUGUGCUCGUCAUAG [Eternabot (L2) Solution 17] (Eterna round: R97, puzzle: Sensor, turn-off variant 1) | 71.6 | 77.9 | – | – | – | – |
| AUGUGCACGCUGCGAUCCUACAUGAGGAUCACCCAUGUGGUCUGGUGGCGUGGGUCACCGGACUUGGCUCGUCUUGA [salish99_S_TOV1_R5_067] (Eterna round: R97, puzzle: Sensor, turn-off variant 1) | 117 | 128 | – | – | – | – |
| AUGUUGUCAGGAUAUCGUUAAUUUAGUUGUUUGUAUUAGUUCGAGAAGGGACAUGAGGAUCACCCAUGUUUGAA [Ex4 #35] (Eterna round: R97, puzzle: Exclusion 4) | 41.2 | 34.8 | – | – | – | – |
| AUUAAAACAUAGGAUAUCGAAUUUAUUAUUUAACGAGAAGGAUGAACAUGAGGAUCACCCAUGUGGUAUCAUGG [Mat - Exclusion 6 - JL Mod - D26] (puzzle: Exclusion 6) | – | – | – | 202 | – | – |
| AUUAUACAUGAGGAUCACCCAUGUGAGGAUAUCCGCAGCACAGGCAGAGUCGGUUGCAGGAGAAGGCACUCCUC [Eternabot (L1) Solution 57] (Eterna round: R97, puzzle: Exclusion 1) | 72.5 | 44.4 | – | – | – | – |

| Sequence | apparent KD of MS2 coat protein (input ligand: FMN 200 uM) [nM] | apparent KD of MS2 coat protein (input ligand: none) [nM] | apparent KD of MS2 coat protein [1] [nM] | apparent KD of MS2 coat protein [2] [nM] | apparent KD of MS2 coat protein [3] [nM] | apparent KD of MS2 coat protein [4] [nM] |
| --- | --- | --- | --- | --- | --- | --- |
| AUUAUAUAGACAGGAUAUUGAUUAUUAUUUUAACAUGAGGAUCACCCAUGUAACCUUAUGUAUAGCAAGAAGGGUCAUUUAUUA [Title] (Eterna round: R96, puzzle: Exclusion NG 2) | 107 | 75.6 | – | – | – | 72.9 |
| AUUAUAUAGACAGGAUAUUGAUUAUUAUUUUAACAUGAGGAUCACCCAUGUAACCUUAUGUGUAGCAAGAAGGGUCAUUUAUUA [Title] (Eterna round: R96, puzzle: Exclusion NG 2) | – | – | – | – | – | 81.8 |
| AUUCGAAAGAUCCACAUGGACAUGAGGAUCACCCAUGUGCAAGCCUUUUUCUCGUCACUAUCGUCAAAAGACGAUAG [Omei Mir Offv1 A7] (Eterna round: R97, puzzle: Sensor, turn-off variant 1) | 744 | 848 | – | – | – | – |
| AUUGAUGUUGAGGAUAUGCUUUUAUUUGUUCUUGCAGAAGGCGAUACAUGAGGAUCACCCAUGUUCAUGGAAGU [JR_E6_Sub090] (puzzle: Exclusion 6) | – | – | – | 39.7 | – | – |
| AUUGCGCGAGGAUAUACGAGAGACCUGUGUCAGAACCAUGGACAUGAGGAUCACCCAUGUAGAAGGCGUGCUCU [Eternabot (L1) Solution 73] (Eterna round: R97, puzzle: Exclusion 2) | 78.6 | 1200 | – | – | – | – |
| AUUGUUUAUGUAGGAUAUGCCUGGCGUGCCUUUGCAGAAGGACAUGAGGAUCACCCAUGUAACAUGAGGCUCACCCAUGUCGCC [salish99_ExNG1_r04_114] (Eterna round: R96, puzzle: Exclusion NG 1) | 162 | 170 | – | – | – | 123 |
| AUUGUUUAUGUAGGAUAUGCCUGGCGUGCCUUUGCAGAAGGACAUGAGGAUCACCCAUGUAACAUGAGGCUCACCCAUGUCGCG [salish99_ExNG1_r04_113] (Eterna round: R96, puzzle: Exclusion NG 1) | 297 | 333 | – | – | – | 184 |
| AUUGUUUGAUACCUCUAAUACAUGAGGAUCACCCAUGUUAUCGAGGAUAUGUAGAAGAGAGGAGAACAGAAGGCGAAGUAAGAG [JR_ExcNG3_Sub095] (Eterna round: R96, puzzle: Exclusion NG 3) | 14.6 | 17.7 | – | – | – | 14.5 |
| AUUUAACAUGAGGAUCACCCAUGUGAGGAUAUGUCCAUAUUCGGCAAAUCGGAUAUGGACAGAAGGCACACCGG [JR_Exclusion1_Sub008] (puzzle: Exclusion 1) | – | – | – | 139 | – | – |
| AUUUAGCAAGCCAGAUCCUACAUGAGGAUCACCCAUGUAGUUCGUCUUAUUUGAAGACAACACAAAAGUGUUGUCUU [Omei Mir OFFv1 B6] (Eterna round: R97, puzzle: Sensor, turn-off variant 1) | 15.7 | 14 | – | – | – | – |
| AUUUAGUGAGGAUAUGUGGCUUCGAUCGUGAGAUCGAGGCUACAGAAGGCACAUGAGGAUCACCCAUGUUCCUA [salish99_ex4_r4_115] (Eterna round: R97, puzzle: Exclusion 4) | 86.3 | 21.4 | – | – | – | – |
| CAAAAGCUAGGAUAUCGCAAACAAGACAUGAGGAUCACCCAUGUGUCCAUGGCCGACCUCCGAGAAGGAGCAAUAU [Dieded] (puzzle: Exclusion 5) | – | – | 32.5 | 27.9 | 30.5 | – |
| CAAAAGGGAGGAUAUACUUGAGGAUCACCCAAGUAAUCGGGUCAAAGAUACCAAGCAGGUAGAAGGCCCAAAUA [Teedleveer] (Eterna round: R97, puzzle: Exclusion 3) | 91.5 | 84.7 | – | – | – | – |
| CAAAAUGCUCGAGGAUAUCCGAGGAGCAGAAAAGGAGAAGGCGAGGAUAAAGAACAUGAGGAUCACCCAUGUGAACCUCGUAAU [Lereores] (Eterna round: R96, puzzle: Exclusion NG 1) | 16.9 | 16.1 | – | – | – | 14.6 |
| CAAACAAAGUCAGGAUAUGUCAAAUUUGUUACGACAGAAGGGACGGGACCGACACUCACAGACAUGAGGAUCACCCAUGUAAAA [Areris] (Eterna round: R96, puzzle: Exclusion NG 1) | 37.8 | 33.5 | – | – | – | 19 |
| CAAACAAGCGAAAGAUCCCACAUGAGGAUCACCCAUGUGCUCGUCUUAUAAGGUACUGUGACGAUAGUCACGGUACC [Mat - Sensor, turn-off var - Eli Mod - D79] (Eterna round: R97, puzzle: Sensor, turn-off variant 1) | 36.8 | 45.2 | – | – | – | – |
